Measurements as given in publication PMC5819950, “3.3-Å resolution cryo-EM structure of human ribonucleotide reductase with substrate and allosteric regulators bound” (eLife, 2018).

B1: human ribonucleotide reductase β subunit (enzyme)
chain: TKAAAPGVEDEPLLRENPRRFVIFPIEYHDIWQMYKKAEASFWTAEEVDLSKDIQHWESLKPEERYFISHVLAFFAASDGIVNENLVERFSQEVQITEARCFYGFQIAMENIHSEMYSLLIDTYIKDPKEREFLFNAIETMPCVKKKADWALRWIGDKEATYGERVVAFAAVEGIFFSGSFASIFWLKKRGLMPGLTFSNELISRDEGLHCDFACLMFKHLVHKPSEERVREIIINAVRIEQEFLTEALPVKLIGMNCTLMKQYIEFVADRLMLELGFSKVFRVENPFDFMENISLEGKTNFFEKRVGEYQRMGVMSSPTENSFTLDADF
notes: human ribonucleotide reductase β (small) subunit, homodimer β2 with the diferric-tyrosyl radical cofactor; also called β2; human β
B2: human ribonucleotide reductase large subunit (alpha) (enzyme, UniProt P23921 1-792, looked up)
chain: MHVIKRDGRQERVMFDKITSRIQKLCYGLNMDFVDPAQITMKVIQGLYSGVTTVELDTLAAETAATLTTKHPDYAILAARIAVSNLHKETKKVFSDVMEDLYNYINPHNGKHSPMVAKSTLDIVLANKDRLNSAIIYDRDFSYNYFGFKTLERSYLLKINGKVAERPQHMLMRVSVGIHKEDIDAAIETYNLLSERWFTHASPTLFNAGTNRPQLSSCFLLSMKDDSIEGIYDTLKQCALISKSAGGIGVAVSCIRATGSYIAGTNGNSNGLVPMLRVYNNTARYVDQGGNKRPGAFAIYLEPWHLDIFEFLDLKKNTGKEEQRARDLFFALWIPDLFMKRVETNQDWSLMCPNECPGLDEVWGEEFEKLYASYEKQGRVRKVVKAQQLWYAIIESQTETGTPYMLYKDSCNRKSNQQNLGTIKCSNLCTEIVEYTSKDEVAVCNLASLALNMYVTSEHTYDFKKLAEVTKVVVRNLNKIIDINYYPVPEACLSNKRHRPIGIGVQGLADAFILMRYPFESAEAQLLNKQIFETIYYGALEASCDLAKEQGPYETYEGSPVSKGILQYDMWNVTPTDLWDWKVLKEKIAKYGIRNSLLIAPMPTASTAQILGNNESIEPYTSNIYTRRVLSGEFQIVNPHLLKDLTERGLWHEEMKNQIIACNGSIQSIPEIPDDLKQLYKTVWEISQKTVLKMAAERGAFIDQSQSLNIHIAEPNYGKLTSMHFYGWKQGLKTGMYYLRTRPAANPIQFTLNKEKLKDKEKVSKEEEEKERNTAAMVCSLENRDECLMCGS
notes: human ribonucleotide reductase α (large) subunit, 792 residues; the final cryo-EM model holds two residues of tag and residues 1-743, and the 49-residue C-terminal tail is disordered; The number of copies depends on the nucleotides: α2 with TTP, α6 ring (three α2) with dATP, ATP, dATP + ATP, ClFDP or ClFTP; also called human α

Columns and labels:
[1] = molecular target: B2; assay: negative stain EM; 3 μM α and 3 μM β with 3 mM ATP, 0.05 mM dATP, 1 mM CDP in 50 mM HEPES pH 7.6, 15 mM MgCl2, 50 mM KCl, 5 mM DTT, 37°C for 2 min, diluted ~20 fold; ISAC averages; conditions: both partners purified
[2] = molecular target: the molecule itself; assay: negative stain EM; α with 0.1 mM TTP, same buffer; 2D class averages
[3] = molecular target: the molecule itself; assay: cryo-EM structure; 14 μM α with 0.05 mM dATP, 3 mM ATP, 1 mM CDP in 50 mM HEPES pH 7.6, 15 mM MgCl2, 1 mM EDTA, 5 mM DTT, 50 mM KCl, incubated at 37°C; single-particle map at 3.3 Å

| Binder | stoichiometry N [1] | stoichiometry N [2] | stoichiometry N [3] |
| --- | --- | --- | --- |
| B1 | 1 β2 per α6 ring | – | – |
| B2 | – | 2 | 6 |
